The target in data set [1] is T1, TBP-NW (Trypanosoma brucei, UniProt Q0PW89 1-197).
T1 sequence: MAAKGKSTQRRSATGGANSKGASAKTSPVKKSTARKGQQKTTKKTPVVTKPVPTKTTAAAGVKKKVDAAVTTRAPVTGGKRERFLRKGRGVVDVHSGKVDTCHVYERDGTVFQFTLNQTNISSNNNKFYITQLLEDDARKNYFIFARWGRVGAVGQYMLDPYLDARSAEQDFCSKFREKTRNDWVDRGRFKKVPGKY
The data set is described as follows: EMSA; FP: 10 mM HEPES pH 8, 0.1 mM TCEP, 0.1 mM EDTA, 175 mM NaCl, 25 C, 5 nM DNA (250 nM for stoichiometry); EMSA: 50 mM Tris pH 7, 0.1 mM TCEP, 0.1 mM EDTA, 5% glycerol, 100 mM NaCl, room temperature, 0.5 uM DNA. As to conditions: protein: recombinant; tags: 6xHis-thioredoxin tag removed with TEV; blunt. On the technique in general: Mobility shift assays separate free from complexed probe on a gel.

For data set [2], the target named is T2, TBP-FL (TbPARP full-length) (Trypanosoma brucei, UniProt Q0PW89 1-573).
T2 sequence: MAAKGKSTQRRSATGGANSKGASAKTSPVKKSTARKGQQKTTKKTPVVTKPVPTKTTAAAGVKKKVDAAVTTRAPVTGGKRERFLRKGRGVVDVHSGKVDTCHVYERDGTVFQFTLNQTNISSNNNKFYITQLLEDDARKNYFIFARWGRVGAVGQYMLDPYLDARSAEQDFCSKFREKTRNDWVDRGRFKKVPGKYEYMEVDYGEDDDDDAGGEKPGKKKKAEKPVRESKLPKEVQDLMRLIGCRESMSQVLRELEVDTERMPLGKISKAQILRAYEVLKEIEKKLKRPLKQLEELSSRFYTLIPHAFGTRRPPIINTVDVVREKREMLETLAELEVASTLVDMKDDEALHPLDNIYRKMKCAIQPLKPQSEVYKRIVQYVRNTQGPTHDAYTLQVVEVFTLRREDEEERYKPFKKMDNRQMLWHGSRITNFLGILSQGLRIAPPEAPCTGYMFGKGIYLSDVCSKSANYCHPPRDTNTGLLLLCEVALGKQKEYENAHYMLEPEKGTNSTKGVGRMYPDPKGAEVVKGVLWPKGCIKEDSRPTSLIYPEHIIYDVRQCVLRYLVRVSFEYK
Described as above. As to conditions: protein: recombinant; tags: 6xHis-thioredoxin tag removed with TEV; blunt.

Data set [3] deals with T3, TBP-N (Trypanosoma brucei, UniProt Q0PW89 1-100).
T3 sequence: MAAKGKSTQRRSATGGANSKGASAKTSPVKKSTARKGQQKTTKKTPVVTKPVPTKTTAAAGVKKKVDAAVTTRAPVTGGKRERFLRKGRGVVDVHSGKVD
The data set is described as above. The settings on record: protein: recombinant; tags: 6xHis tag removed with TEV; blunt.

Data set [4] deals with T2, TBP-FL (TbPARP full-length). The data set is described as follows: EMSA; higher protein needed for full supershift; FP: 10 mM HEPES pH 8, 0.1 mM TCEP, 0.1 mM EDTA, 175 mM NaCl, 25 C, 5 nM DNA (250 nM for stoichiometry); EMSA: 50 mM Tris pH 7, 0.1 mM TCEP, 0.1 mM EDTA, 5% glycerol, 100 mM NaCl, room temperature, 0.5 uM DNA. The settings on record: protein: recombinant; tags: 6xHis-thioredoxin tag removed with TEV; 3' overhang 4 nt (TCGA) on strand 1, other end blunt.

Data set [5] shares this target. The data set is described as follows: fluorescence polarization (stoichiometry); 50 mM NaCl; non-specific, no clear inflection; FP: 10 mM HEPES pH 8, 0.1 mM TCEP, 0.1 mM EDTA, 175 mM NaCl, 25 C, 5 nM DNA (250 nM for stoichiometry); EMSA: 50 mM Tris pH 7, 0.1 mM TCEP, 0.1 mM EDTA, 5% glycerol, 100 mM NaCl, room temperature, 0.5 uM DNA. The settings on record: protein: recombinant; tags: 6xHis-thioredoxin tag removed with TEV; label: 5' FAM on strand 1; blunt. (In general: In fluorescence polarisation assays a small probe gives low polarisation when free and higher when bound to something large.)

Data set [6] shares this target. The data set is described as follows: fluorescence polarization; low nanomolar affinity (value only in figure); 1:1; FP: 10 mM HEPES pH 8, 0.1 mM TCEP, 0.1 mM EDTA, 175 mM NaCl, 25 C, 5 nM DNA (250 nM for stoichiometry); EMSA: 50 mM Tris pH 7, 0.1 mM TCEP, 0.1 mM EDTA, 5% glycerol, 100 mM NaCl, room temperature, 0.5 uM DNA. The settings on record: protein: recombinant; tags: 6xHis-thioredoxin tag removed with TEV; label: 5' FAM; single strand.

Data set [7] has the same target. The data set is described as follows: SEC-SAXS; 1:1 complex, non-activating DNA; FP: 10 mM HEPES pH 8, 0.1 mM TCEP, 0.1 mM EDTA, 175 mM NaCl, 25 C, 5 nM DNA (250 nM for stoichiometry); EMSA: 50 mM Tris pH 7, 0.1 mM TCEP, 0.1 mM EDTA, 5% glycerol, 100 mM NaCl, room temperature, 0.5 uM DNA. As to conditions: protein: recombinant; tags: 6xHis-thioredoxin tag removed with TEV; hairpin, 28 bp stem, TTTT loop, 3' overhang 4 nt. Background: In gel filtration, larger molecules generally elute earlier.

The target is the same in data set [8]. The data set is described as follows: SEC-SAXS; 2:1 protein:DNA complex, activating DNA; FP: 10 mM HEPES pH 8, 0.1 mM TCEP, 0.1 mM EDTA, 175 mM NaCl, 25 C, 5 nM DNA (250 nM for stoichiometry); EMSA: 50 mM Tris pH 7, 0.1 mM TCEP, 0.1 mM EDTA, 5% glycerol, 100 mM NaCl, room temperature, 0.5 uM DNA. The settings on record: protein: recombinant; tags: 6xHis-thioredoxin tag removed with TEV; hairpin, 28 bp stem, TTTT loop, 3' overhang 4 nt.

B1: template 1 (dsDNA)
DNA 1: CCAGGACCAGGGCGCAGATCACCTTGTTCTCCA
DNA 2: TGGAGAACAAGGTGATCTGCGCCCTGGTCCTGG
B1: the binding result in data set [1], in data set [2] and in data set [3] was “binds” throughout.

B2: template 6 (dsDNA)
DNA 1: CGCGCTAAGGCTCATGCTACACTAGAGCTCGA
DNA 2: GCTCTAGTGTAGCATGAGCCTTAGCGCG
modifications: 5' phosphate on strand 2
For the molecule B2, in data set [4], the binding result is “binds”.

B3: template 20 (dsDNA)
DNA 1: CAGCAGGTACCTGCCCGGCGCCCAGAGAGGAATGCAACACTC
DNA 2: GAGTGTTGCATTCCTCTCTGGGCGCCGGGCAGGTACCTGCTG
As for B3, in data set [5], the binding result is “binds”.

Take CAGCAGGTACCTGCCCGGCGCCCAGAGAGGAATGCAACACTC (ssDNA) [template 21]: in data set [6], the binding result is recorded as “binds”.

B4: template 14 (structured_DNA)
DNA: GCTCTAGTGTAGCATGAGCCTTAGCGCGTTTTCGCGCTAAGGCTCATGCTACACTAGAGCTCGA
On to B4, for which the binding result in data set [7] is on record as “binds”.

B5: template 15 (structured_DNA)
DNA: B4 DNA
modifications: 5' phosphate
Regarding B5, the binding result in data set [8] is reported as “binds”.
